Results on 1 substance are retold here after PMC3903627.

For the assay, the target named is Luciferase-ArgBP2 P1 and EYFP-ArgBP2 P1 (BRET pair). Description: BRET. Particulars: HEK293T cells, one representative experiment, read off a plot.

For “Luciferase-ArgBP2 WT and EYFP-ArgBP2 WT (BRET pair) P497A; P500A”, the response amounted to 190 mBu (0.10 µg YFP fused protein, parent: est. 510); 310 mBu (0.20 µg YFP fused protein, parent: est. 670); 390 mBu (0.30 µg YFP fused protein, parent: est. 740); 490 mBu (0.40 µg YFP fused protein, parent: est. 790); 570 mBu (0.50 µg YFP fused protein, parent: est. 790).
